Measurements reported in the RNAGym collection of RNA variant scans (doi:10.7554/elife.80360).

B1: Hammerhead Ribozyme (parent)
chain: ACCGGAUGUGCUUUCCGGUCUGAUGAGUCCGUGAGGACGAAACAG

Variants of: B1
Assay: self-cleavage, relative activity (ratio to wild type); higher = more cleavage; co-transcriptional

Question: With ACCGGAUGUGCUUACCGGUCUGAUGAGUCCGUGAGGACGUAACAG [U14A A40U] as the variant, how does the self-cleavage read?
Answer: 0.237

Question: With ACCAGAUGUGCUUUCCGGUCUGAUGAGUCCGUAAGGACGAAACAG [G4A G33A] as the variant, how does the self-cleavage read?
Answer: 0.55

Question: Which self-cleavage does the source give for ACCGGAUGUGCUUUCCGGUCUGGUGAGUCCGUGAGGACCAAACAG [A23G G39C] here?
Answer: 0.33

Question: With ACCGGAUGUCCUUUCCGUUCUGAUGAGUCCGUGAGGACGAAACAG [G10C G18U] as the variant, how does the self-cleavage read?
Answer: 0.746

Question: For ACCGGAUGUGCUUUCCUGUCUAAUGAGUCCGUGAGGACGAAACAG [G17U G22A], which self-cleavage is on record?
Answer: 0.368

Question: With ACCGGAUGUGCUUUCCGGUCCGCUGAGUCCGUGAGGACGAAACAG [U21C A23C] as the variant, how does the self-cleavage read?
Answer: 0.771

Question: For ACCGGAUGUGCUUUCCGGUUUAAUGAGUCCGUGAGGACGAAACAG [C20U G22A], which self-cleavage is on record?
Answer: 0.338

Question: With ACCGGAUGUGCUUUCCGGUCUGAUGAGGCCGUGAGGACGAAACGG [U28G A44G] as the variant, how does the self-cleavage read?
Answer: 0.673

Question: Which self-cleavage does the source give for ACCGGGUGUGCUUUCCGGUCUGAUGAGUCAGUGAGGACGAAACAG [A6G C30A] here?
Answer: 0.48

Question: For ACCGGAUGUGCUUUCCGGUCUGAUGAGUCCCUGAGUACGAAACAG [G31C G36U], which self-cleavage is on record?
Answer: 0.562

Question: For ACCGGAUGUGCGUUCCGGUCUGUUGAGUCCGUGAGGACGAAACAG [U12G A23U], which self-cleavage is on record?
Answer: 0.317

Question: For ACCGGAUGUGCUUUCCGGUCUCAUGAGUCCCUGAGGACGAAACAG [G22C G31C], which self-cleavage is on record?
Answer: 0.37

Question: Which self-cleavage does the source give for ACCGGAUGUGCUUUCCGGUCUGAUGAGACCAUGAGGACGAAACAG [U28A G31A] here?
Answer: 0.856

Question: Which self-cleavage does the source give for ACCGGAUGUGCUUUCCGGUCGGAUGAGUCCGUGAGGACUAAACAG [U21G G39U] here?
Answer: 0.37

Question: With ACCGGAUGUGCUUUCCGGUCUGAUGAAUCCGUGAGGACAAAACAG [G27A G39A] as the variant, how does the self-cleavage read?
Answer: 0.247

Question: With ACCGGACGUGCUUUCCGGUCUGAUGAGUCCGUGAGGACGAAAGAG [U7C C43G] as the variant, how does the self-cleavage read?
Answer: 0.346

Question: With AGCGGAUGUGCUUUCCGGUCUGAUGAGCCCGUGAGGACGAAACAG [C2G U28C] as the variant, how does the self-cleavage read?
Answer: 0.262

Question: Which self-cleavage does the source give for ACCGGAUGUGCUUUCCGGUCUGAUGAGUCCGUGAAGACGAAACAG [G35A] here?
Answer: 0.798

Question: Which self-cleavage does the source give for ACCGAAUGUGCUUUCCGGUCUGAUGAGUUCGUGAGGACGAAACAG [G5A C29U] here?
Answer: 0.95

Question: With ACCGGAUGUGCUUUCCGGUCUGAUGAGUCGGUCAGGACGAAACAG [C30G G33C] as the variant, how does the self-cleavage read?
Answer: 0.807

Question: With ACCGGAUGUGGUUUCCGGUCUGAUGUGUCCGUGAGGACGAAACAG [C11G A26U] as the variant, how does the self-cleavage read?
Answer: 1.05

Question: Which self-cleavage does the source give for ACCGGAUGUGCUUUCCGAUCUGAUGAGUCCGUGAGGAGGAAACAG [G18A C38G] here?
Answer: 0.453

Question: For ACCGGAUGCGCUUUCCGGUCUGACGAGUCCGUGAGGACGAAACAG [U9C U24C], which self-cleavage is on record?
Answer: 0.94

Question: With ACCGGAUGUGCUUUCCGGUCUAAUGAGCCCGUGAGGACGAAACAG [G22A U28C] as the variant, how does the self-cleavage read?
Answer: 0.294

Question: With ACCGGAAGUGCUUUCCGGUCUCAUGAGUCCGUGAGGACGAAACAG [U7A G22C] as the variant, how does the self-cleavage read?
Answer: 0.309

Question: With ACCGGAUGUGCUUUCCGGUCUGAUGAGUCCGUGAGUACGAAACAA [G36U G45A] as the variant, how does the self-cleavage read?
Answer: 0.452

Question: Which self-cleavage does the source give for UCCGGAUGUGCUUUCCGGUCUGAUGAGUCCGUGAGAACGAAACAG [A1U G36A] here?
Answer: 0.537

Question: For ACCGGAUGUGCUUUCCGGUAUGAUGAGUCCGUGAGGACGUAACAG [C20A A40U], which self-cleavage is on record?
Answer: 0.382

Question: Which self-cleavage does the source give for ACCGGAUGUGCUUUCCGGUCUGAUGAGUCCGUGAGAACGAAGCAG [G36A A42G] here?
Answer: 0.25

Question: With ACCCGAUGUGCUUUCCGGUCUGAUGAGUCCGUGAGGACGUAACAG [G4C A40U] as the variant, how does the self-cleavage read?
Answer: 0.255

Question: With ACCGGAUGUGCUUUCCGGUCUGCCGAGUCCGUGAGGACGAAACAG [A23C U24C] as the variant, how does the self-cleavage read?
Answer: 0.505

Question: Which self-cleavage does the source give for ACCGGAUGUGUUUUCCCGUCUGAUGAGUCCGUGAGGACGAAACAG [C11U G17C] here?
Answer: 0.43

Question: For ACCGGAUGUGCUUUCCGGUCUGGUGAGUCCGUGAGCACGAAACAG [A23G G36C], which self-cleavage is on record?
Answer: 0.291

Question: Which self-cleavage does the source give for ACCGGAUGUGCUCUCCGGUCUGAUGAGUCCGUGAGGUCGAAACAG [U13C A37U] here?
Answer: 0.482

Question: Which self-cleavage does the source give for ACCGGUUGUGCUUUCGGGUCUGAUGAGUCCGUGAGGACGAAACAG [A6U C16G] here?
Answer: 0.459

Question: For ACCGGAUGUGCUUUCCGGUCUGAUCAGUCCGUGAGGACGAAAGAG [G25C C43G], which self-cleavage is on record?
Answer: 0.235

Question: For ACCGGAUGUGCUUUCCGGUCUGAUGACUCCGUGCGGACGAAACAG [G27C A34C], which self-cleavage is on record?
Answer: 0.411

Question: Which self-cleavage does the source give for ACCGGAUGUGCUUUCCGGUCUGAUGAUUCCGUGAGGGCGAAACAG [G27U A37G] here?
Answer: 0.501

Question: With ACCGGAUGUGCUAUCCGGUCUGAUAAGUCCGUGAGGACGAAACAG [U13A G25A] as the variant, how does the self-cleavage read?
Answer: 0.326

Question: For AUCGGAUGUGCUUUCCGUUCUGAUGAGUCCGUGAGGACGAAACAG [C2U G18U], which self-cleavage is on record?
Answer: 1.16

Question: With ACCGGAGGUGCUUUCCGGUCUGAUGAGUCCGUAAGGACGAAACAG [U7G G33A] as the variant, how does the self-cleavage read?
Answer: 1.34

Question: For ACCGGAUAUGCUUUCCGGUCUGAUGAGUCCUUGAGGACGAAACAG [G8A G31U], which self-cleavage is on record?
Answer: 1.14

Question: Which self-cleavage does the source give for ACCGGAUGUGCUUUCCGGUCUGAUGAGUCCGUGAGUAGGAAACAG [G36U C38G] here?
Answer: 0.331

Question: Which self-cleavage does the source give for ACCGUAAGUGCUUUCCGGUCUGAUGAGUCCGUGAGGACGAAACAG [G5U U7A] here?
Answer: 0.87

Question: Which self-cleavage does the source give for ACCGGAUGUGCUUUCCGGUCUGAUGAGUCCUUGGGGACGAAACAG [G31U A34G] here?
Answer: 0.938

Question: Which self-cleavage does the source give for ACCGGCUGUGCUUUCCGGUCUGAUGAGUCCGUGAGGACGAAACAU [A6C G45U] here?
Answer: 0.44

Question: With CCCGGAUGUGCUUUCCGGUCUGAUGAGUCCGUGAGGGCGAAACAG [A1C A37G] as the variant, how does the self-cleavage read?
Answer: 0.348

Question: Which self-cleavage does the source give for ACCGGAUGUGCUUUCCGGUCUGAUGAUUCUGUGAGGACGAAACAG [G27U C30U] here?
Answer: 0.456

Question: Which self-cleavage does the source give for ACCGGAUGUGCUUCCCGGUCUGAUGAGUCCGUGAGGAAGAAACAG [U14C C38A] here?
Answer: 0.532

Question: Which self-cleavage does the source give for ACAGGAUGUGCUUUCCGGUCUGAUGAGUCGGUGAGGACGAAACAG [C3A C30G] here?
Answer: 0.426

Question: For ACCGGAUGUGCUUUCCGGUCUGAUGAGUACGCGAGGACGAAACAG [C29A U32C], which self-cleavage is on record?
Answer: 0.866

Question: Which self-cleavage does the source give for ACCGGAUGUGCUUUCCCGUCUGAUGAGUCCGUGAGGACGAAAUAG [G17C C43U] here?
Answer: 0.404

Question: Which self-cleavage does the source give for ACCGGAUGUGCUUUCCGAUCUGAUGAGUCCGUGAGGACGACACAG [G18A A41C] here?
Answer: 0.328

Question: For ACCGGAUUCGCUUUCCGGUCUGAUGAGUCCGUGAGGACGAAACAG [G8U U9C], which self-cleavage is on record?
Answer: 1

Question: Which self-cleavage does the source give for ACCCGAUGUGCUUUCCGGUCUGAUGAGUCCGUCAGGACGAAACAG [G4C G33C] here?
Answer: 0.742

Question: Which self-cleavage does the source give for ACCGGAUGUGCUUUCCGGUCUGAUGAGUCCGUGAGGAAGUAACAG [C38A A40U] here?
Answer: 0.307

Question: Which self-cleavage does the source give for ACCGGAUGUGCGUUCCGGUCUGACGAGUCCGUGAGGACGAAACAG [U12G U24C] here?
Answer: 1.18
